B1: SC16.56 PBD3: anti-DLL3 ADC; comprises the same humanized antibody as found in Rova-T but employs a different PBD cytotoxin (conjugate, chains of the INN, looked up)
VH: QVQLVQSGAEVKKPGASVKVSCKASGYTFTNYGMNWVRQAPGQGLEWMGWINTYTGEPTYADDFKGRVTMTTDTSTSTAYMELRSLRSDDTAVYYCARIGDSSPSDYWGQGTLVTVSS
VL: EIVMTQSPATLSVSPGERATLSCKASQSVSNDVVWYQQKPGQAPRLLIYYASNRYTGIPARFSGSGSGTEFTLTISSLQSEDFAVYYCQQDYTSPWTFGQGTKLEIK
modifications: PBD3 cytotoxin conjugate

Columns and labels:
[1] = tested on: recurrent/refractory small cell lung cancer (SCLC); conditions: single agent; cited from earlier work
[2] = tested on: GB8 tumors (GBM PDX tumor line); experiment: Glioblastoma PDX tumor growth suppression in immunodeficient mice; assay type: in vivo, female NOD/SCID mice; conditions: single dose 0.2 mg/kg, intraperitoneal, subcutaneous GB8 tumors, 20 days post-treatment (FIG. 3)
Description: (§1) A GBM PDX tumor line was grown subcutaneously in the flanks of female NOD/SCID mice using art-recognized techniques. Tumor volumes and mouse weights were monitored once or twice per week. When tumor volumes reached 150-250 mm^3, mice were randomly assigned to treatment groups and injected intraperitoneally with SC16.56 PDB3 or an isotype control human IgG1.PDB3. SC16.56 PDB3 comprises the same humanized antibody as found in Rova-t but employs a different PBD cytotoxin. Following treatment, tumor volumes and mouse weights were monitored until tumors exceeded 1000 mm^3 or mice became sick.

[3] = Adverse health effects in treated tumor-bearing mice; assay type: in vivo, female NOD/SCID mice; conditions: tumor-bearing NOD/SCID mice treated intraperitoneally
Description: as §1

Molecule	clinical activity [1]	tumor growth (tumor volume) [2]	adverse health effects [3]
rovalpituzumab tesirine [Rova-T]	clinically demonstrated single agent activity	–	–
B1	–	tumor suppression	did not exhibit any adverse health effects beyond those typically seen in immunodeficient, tumor-bearing NOD/SCID mice
